Data published in publication PMC5486021, “Biochemical and Computational Insights on a Novel Acid-Resistant and Thermal-Stable Glucose 1-Dehydrogenase” (International Journal of Molecular Sciences, 2017).
Blank lines part the entries; values can stand above or below the compound they belong to.

Legend:
BzGDH = target: T1, BzGDH (Bacillus sp. (in: firmicutes), UniProt A0A068FPP9); test: NADH absorbance at […] nm, nonlinear Michaelis-Menten fit; format: biochemical, Bacillus sp. ZJ; settings: 100 mM sodium phosphate pH 8.0, 25 °C; 1 mM NAD; glucose 1-200 mM; kcat per subunit
T1 construct: full length, 261 residues (28 kDa predicted, 30 kDa SDS-PAGE, 120 kDa native), pET28a (NdeI/BamHI) in E. coli BL21(DE3), Ni-NTA purified, His tag removal not mentioned; N-terminus from primer MYSDLA

[1] = tested on: T2, NC(=O)c1ccc[n+]([C@@H]2O[C@H](COP(=O)(O)OP(=O)(O)OC[C@H]3O[C@@H](n4cnc5c(N)ncnc54)[C@H](OP(=O)(O)O)[C@@H]3O)[C@@H](O)[C@H]2O)c1; test: purified protein; format: biochemical, Bacillus sp. ZJ; settings: 100 mM sodium phosphate pH 8.0, 25 °C, glucose given as 200 µM (standard assay 200 mM), NADP 0.01-0.2 mM, kcat per subunit, varied: cofactor
T2 construct: full length, 261 residues (28 kDa predicted, 30 kDa SDS-PAGE, 120 kDa native), pET28a (NdeI/BamHI) in E. coli BL21(DE3), Ni-NTA purified, His tag removal not mentioned; N-terminus from primer MYSDLA

[2] = tested on: T3, NC(=O)c1ccc[n+]([C@@H]2O[C@H](COP(=O)(O)OP(=O)(O)OC[C@H]3O[C@@H](n4cnc5c(N)ncnc54)[C@H](O)[C@@H]3O)[C@@H](O)[C@H]2O)c1; test: purified protein; format: biochemical, Bacillus sp. ZJ; settings: 100 mM sodium phosphate pH 8.0, 25 °C, glucose given as 200 µM (standard assay 200 mM), NAD 0.01-0.2 mM, kcat per subunit, varied: cofactor
T3 construct: full length, 261 residues (28 kDa predicted, 30 kDa SDS-PAGE, 120 kDa native), pET28a (NdeI/BamHI) in E. coli BL21(DE3), Ni-NTA purified, His tag removal not mentioned; N-terminus from primer MYSDLA

[3] = target: NAD(P)-dependent glucose 1-dehydrogenase from Bacillus sp. ZJ (Bacillus sp. ZJ); test: SEC; gel filtration on a Zorbax Bio-series GF-450 column; standards lysozyme (14.3 kDa), chicken ovalbumin (45 kDa), bovine serum albumin fraction V (67 kDa), goat IgG (150 kDa); native mass estimated 120 kDa against 30 kDa on SDS-PAGE

Km (BzGDH): 17.1 ± 0.946 mM
Compound: OC[C@H]1OC(O)[C@H](O)[C@@H](O)[C@@H]1O (stereo partly drawn) [D-glucose]

Compound: BzGDH (Bacillus sp. (in: firmicutes))
Km [1]: 0.404 ± 0.088 mM
kcat [1]: 74 ± 2.68 s⁻¹
kcat/Km [1]: 183000 M⁻¹ s⁻¹
Km [2]: 0.072 ± 0.009 mM
kcat [2]: 84.5 ± 2.17 s⁻¹
kcat/Km [2]: 1.17e+06 M⁻¹ s⁻¹

stoichiometry N [3]: 4
Compound: NAD(P)-dependent glucose 1-dehydrogenase from Bacillus sp. ZJ (enzyme)
